# In patent US20260055186A1 (REPERTOIRE IMMUNE MEDICINES, published 2026):
# Numbering of substitutions follows the chain as printed.
# B1: humanized 02A01-VH2-VK3 (antibody, human IgG1, V domains shown)
# VH: EVQLVQSGAEVKKPGATLKISCKASGYTFTDFTMHWVQQAPGKGLEWIGLVNPNNGGNIYNQNFKGRATLTVDTSTSTAYMELSSLRSEDTSVYYCGRVPLYTSHGMDYWGQGTLVTVSS
# VL: EIVLTQSPATLSLSPGERATISCRASESVDSYDINSMHWYQQKPGQAPRLLIYRASHLQSGIPARFSGSGSRTDFTLTISSLEPEDFATYYCQQSNEDPLTFGQGTKLEIK
# notes: human IgG1 format; also called 02-VH2-VK3
# B2: humanized 02A01-VH1-VK4 (antibody, human IgG1, V domains shown)
# VH: B1 VH with A9P, K12V, Q38K, G44S
# VL: B1 VL with L13V, R54D, H57N, L58R, Q59A, S60T, L82V
# notes: human IgG1 format; also called 02-VH1-VK4
# B3: humanized 02A01-VH6-VK4 (antibody, human IgG1, V domains shown)
# VH: B1 VH with L18V, N61A, Q62E, N63K, K65Q, A68V, S92A
# VL: B1 VL with L13V, R54D, H57N, L58R, Q59A, S60T, L82V
# notes: human IgG1 format; also called 02-VH6-VK4
# B4: humanized 02A01-VH3-VK4 (antibody, human IgG1, V domains shown)
# VH: B1 VH with N61A, Q62E, N63K, K65Q
# VL: B1 VL with L13V, R54D, H57N, L58R, Q59A, S60T, L82V
# notes: human IgG1 format; also called 02-VH3-VK4
# B5: humanized 02A01-VH4-VK1 (antibody, human IgG1, V domains shown)
# VH: B1 VH with L18V, N61A, Q62E, N63K, K65Q, S92A
# VL: B1 VL with L13V, A47P, L82V
# notes: human IgG1 format; also called 02-VH4-VK1
# B6: humanized 02A01-VH4-VK4 (antibody, human IgG1, V domains shown)
# VH: B1 VH with L18V, N61A, Q62E, N63K, K65Q, S92A
# VL: B1 VL with L13V, R54D, H57N, L58R, Q59A, S60T, L82V
# notes: human IgG1 format; also called 02-VH4-VK4
# B7: humanized 02A01-VH2-VK4 (antibody, human IgG1, V domains shown)
# VH: B1 VH
# VL: B1 VL with L13V, R54D, H57N, L58R, Q59A, S60T, L82V
# notes: human IgG1 format; also called 02-VH2-VK4
# B8: 03A01-IgG-IL12 (HC) (other)
# VH: DVQFQESGPGLVKPSQSLSLTCTVTGYSITSDFAWNWIRQFPGNELEWMGYISYSGDTNYNPSLRSRISITRDTSKNQFFLQLDSVTTEDTATYYCTIRGYYTDSAFVFWGQGTLVTVSA
# VL: DIQMTQSSSYLSVSLGGRVTITCKASDHINNWLAWYQQKPGNAPRLLISGATSLETGVPSRFTGSGSGLDYTLSITSLQTEDVATYYCQQYWNSPFTFGSGTKLEIK
# B9: 02A01-IgG-IL12 (HC) (other)
# VH: EVQLQQSGPELVKPGASLKISCKASGYTFTDFTMHWVKQSHGKSLEWIGLVNPNNGGNIYNQNFKGKATLTVDTSSSTAYMELRSLTSEDSSVYYCGRVPLYTSHGMDYWGQGTSVTVSS
# VL: DIVLTQSPAFLAVSLGQRATISCRASESVDSYDINSMHWYQQKPGQPPKLLIYRASHLQSGIPARFSGSGSRTDFTLTINFVEADDVATYYCQQSNEDPLTFGAGTKLELK
# B10: 02A01-Fab-IL12 (LC) (other)
# VH: B9 VH
# VL: B9 VL
# Molecular target: T1, human CD8 on human T cells (human, UniProt P01732 22-235)
# T1 construct: whole, on cells; the antibodies were raised against human CD8 alpha; also called CD8 on human CD8+ T cells; hCD8
# Test: flow cytometry on human CD8+ T cells, titration
# Protocol: (§1) The 24 humanized 02A01-derived anti-CD8 antibodies (excluding 02A01-VK3(D30E/N35Q)) were screened for their ability to bind human CD8 by evaluating binding to CD8+ T cells. The non-humanized parent (“02-Parent”) and the non-humanized parent comprising a heavy chain M39L liability mutation (“02-Parent-VH-M39L”) were used as controls. […] Cells were washed with 1×phosphate buffered saline (PBS) containing 1 mg/mL bovine serum albumin (PBS/BSA) and then stained with a 1:100 dilution of DyLight650-conjugated anti-human IgG H+L polyclonal antibody (ThermoFisher cat. no. Sa5-10129) in PBS/BSA. Following a 20-30 min incubation at 4° C., the cells were washed once with PBS/BSA, and then resuspended in PBS/BSA for analysis on a FACSCelesta using Diva software (BD Biosciences). The resulting data were analyzed using FlowJo. Data were quantified and reported as Max fluorescence intensity (MFI) of human IgG-Fc. […] Complete replacement of the HCDR1 (antibodies comprising VH5) eliminated binding to the CD8+ T cells.
# (§2) Binding to human CD8+ T cells was tested at 7 serial 5-fold dilutions of each tested humanized 02A01 variant (from 50 nM to 3.2 pM). The resulting data were analyzed using FlowJo.
# T1 sequence (P01732 22-235): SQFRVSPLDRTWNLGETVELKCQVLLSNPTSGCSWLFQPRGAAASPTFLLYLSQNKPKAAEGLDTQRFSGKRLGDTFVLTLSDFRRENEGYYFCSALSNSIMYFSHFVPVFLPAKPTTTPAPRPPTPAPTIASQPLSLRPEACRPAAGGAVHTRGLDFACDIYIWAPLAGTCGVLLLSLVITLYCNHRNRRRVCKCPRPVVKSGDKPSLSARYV
Binder,Fold Change to Parental Apparent KD,Maximum CD8+ T cell Binding (MFI)
B1,1.18 fold,2880 MFI
B2,0.89 fold,2050 MFI
B3,1.12 fold,1690 MFI
B4,1.16 fold,1560 MFI
B5,0.86 fold,2810 MFI
B6,1.04 fold,1640 MFI
B7,0.89 fold,2040 MFI

# Molecular target: T1, human CD8 on human T cells
# Test: flow cytometry on human CD8+ T cells, titration, apparent KD
# Protocol: as §1, §2
row,Binder,Kd
1,B1,67 pM
2,B2,51 pM
3,B3,64 pM
4,B4,66 pM
5,B5,49 pM
6,B6,59 pM
7,B7,51 pM

# Molecular target: T1, human CD8 on human T cells
# Test: cell-based or functional assay
row,Binder,EC50 of pSTAT4 signaling in human CD8+ T cells
1,B8,15.7 pM
2,B9,3.03 pM
3,B10,1.74 pM
